Test results published in article PMC6003988, “VRK1 and AURKB form a complex that cross inhibit their kinase activity and the phosphorylation of histone H3 in the progression of mitosis” (Cellular and Molecular Life Sciences: CMLS, 2018).

B1: HA–VRK1–K179E, kinase-dead, expressed in HEK293T cells (enzyme, human, UniProt Q99986 1-396, looked up)
chain: MPRVKAAQAGRQSSAKRHLAEQFAVGEIITDMAKKEWKVGLPIGQGGFGCIYLADMNSSESVGSDAPCVVKVEPSDNGPLFTELKFYQRAAKPEQIQKWIRTRKLKYLGVPKYWGSGLHDKNGKSYRFMIMDRFGSDLQKIYEANAKRFSRKTVLQLSLRILDILEYIHEHEYVHGDIEASNLLLNYKNPDQVYLVDYGLAYRYCPEGVHKEYKEDPKRCHDGTIEFTSIDAHNGVAPSRRGDLEILGYCMIQWLTGHLPWEDNLKDPKYVRDSKIRYRENIASLMDKCFPEKNKPGEIAKYMETVKLLDYTEKPLYENLRDILLQGLKAIGSKDDGKLDLSVVENGGLKAKTITKKRKKEIEESKEPGVEDTEWSNTQTEEAIQTRSRTRKRVQK
notes: Vaccinia-related kinase 1 (VRK1), kinase-dead mutant K179E; plasmid pCEFL-HA-VRK1-K179E; also called HA–VRK1–KD; pCEFL–HA–VRK1–K179E; source: HEK293T, transfected, in lysate
B2: GST–VRK1 (K179E), kinase inactive, expressed in HEK293T cells (enzyme, human, UniProt Q99986 1-396, looked up)
chain: B1 chain
notes: Vaccinia-related kinase 1 (VRK1), kinase-dead mutant K179E; also called GST-VRK1 KD; kinase-dead VRK1 (K179E); source: HEK293T, transfected, in lysate

Target: T1, V5–AURKB, expressed in HEK293T cells (UniProt Q96GD4 1-344)
T1 construct: Aurora kinase B (AURKB), wild type; plasmid pDEST3.1_nV5-AurkB provided by Malumbres [65]; also called Aurora B; Aurora kinase B; source: HEK293T, transfected, in lysate
Assay: co-IP; immunoprecipitation of V5-AURKB from extracts of HEK293T cells co-transfected with GST-VRK1 or HA-VRK1, WT or kinase-dead; VRK1 detected by immunoblot, quantified
Details: partners not purified

T1 sequence (Q96GD4 whole entry): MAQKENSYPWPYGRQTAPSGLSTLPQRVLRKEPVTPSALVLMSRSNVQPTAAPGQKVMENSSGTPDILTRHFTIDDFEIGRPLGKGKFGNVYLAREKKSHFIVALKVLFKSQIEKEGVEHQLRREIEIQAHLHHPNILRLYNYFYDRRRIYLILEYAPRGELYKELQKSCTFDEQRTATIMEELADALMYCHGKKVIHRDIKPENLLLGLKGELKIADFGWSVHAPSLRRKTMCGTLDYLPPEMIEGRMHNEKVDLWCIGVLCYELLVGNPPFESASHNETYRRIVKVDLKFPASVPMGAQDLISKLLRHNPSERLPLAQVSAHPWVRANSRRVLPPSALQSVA

fold binding against active VRK1 | Binder
~3 fold | B1
~3 fold | B2
